Source: article PMC3438949

Biological target: tapasin-ERp57 heterodimer, endogenous (human (endogenous in human cell lines)) (UniProt O15533)
Assay: co-IP

UniProt O15533, sequence (O15533 21-448, chain 1 of 2): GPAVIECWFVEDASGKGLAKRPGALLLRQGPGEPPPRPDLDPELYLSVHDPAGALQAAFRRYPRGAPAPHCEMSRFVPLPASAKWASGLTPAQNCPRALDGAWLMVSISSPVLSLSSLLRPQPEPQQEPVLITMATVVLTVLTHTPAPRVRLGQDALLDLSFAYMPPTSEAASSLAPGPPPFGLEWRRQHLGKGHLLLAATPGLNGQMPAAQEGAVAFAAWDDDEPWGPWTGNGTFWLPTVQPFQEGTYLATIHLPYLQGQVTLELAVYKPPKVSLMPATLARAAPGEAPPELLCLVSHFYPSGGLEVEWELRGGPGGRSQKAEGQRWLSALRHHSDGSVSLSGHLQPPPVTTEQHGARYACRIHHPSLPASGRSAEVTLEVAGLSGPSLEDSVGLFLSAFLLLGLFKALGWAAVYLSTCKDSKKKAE
UniProt O15533, sequence (P30101 25-505, chain 2 of 2, further chain): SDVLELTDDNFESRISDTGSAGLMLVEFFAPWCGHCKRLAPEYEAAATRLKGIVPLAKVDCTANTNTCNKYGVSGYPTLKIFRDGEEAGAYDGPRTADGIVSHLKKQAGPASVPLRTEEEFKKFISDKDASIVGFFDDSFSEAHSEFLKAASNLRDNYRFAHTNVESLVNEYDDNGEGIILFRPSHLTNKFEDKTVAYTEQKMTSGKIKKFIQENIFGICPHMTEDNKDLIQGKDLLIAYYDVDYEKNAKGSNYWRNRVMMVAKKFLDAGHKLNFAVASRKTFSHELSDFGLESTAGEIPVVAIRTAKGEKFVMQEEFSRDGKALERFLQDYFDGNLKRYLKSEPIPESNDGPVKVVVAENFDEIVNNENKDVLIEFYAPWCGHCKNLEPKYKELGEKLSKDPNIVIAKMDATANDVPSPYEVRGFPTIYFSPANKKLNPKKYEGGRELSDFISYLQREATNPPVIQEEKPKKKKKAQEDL

CFP-tagged HLA-A2 (from UniProt P61769 21-119) (complex)
percent of HLA-A2-CFP precipitated by PaSta1 alone (HeLaM.A2-CFP cells): 20%

HLA-C4, endogenous in C1R cells (from UniProt P61769 21-119) (complex)
percent of PLC-associated HLA-C4 precipitated by PaSta1 alone (C1R.A2-His cells): 60%

endogenous MHC I of HeLaM cells (HLA-A6802, -B1503 and -C1203) (from UniProt P61769 21-119) (complex)
percent of endogenous MHC I precipitated by PaSta1 alone (HeLaM.A2-CFP cells): 60%
